How the values were obtained:
[1] = target: IgG constant region-CD21 fusion protein (UniProt P20023); experiment: ELISA, IgG constant region-CD21 fusion coated; reference monomeric C3d (Calbiochem)
[2] = target: CD21 (CR2) on human CD21+ Raji lymphoblastoid cells (human) (UniProt P20023); experiment: flow cytometry on Raji cells, 100 nM; reference monomeric C3d (Calbiochem)

fold increase in gradient of the linear portion of the binding curve against monomeric C3d [1]: 3.4 fold
fold signal intensity increase against C3d (Calbiochem) [2]: 6.4 fold
Substance: linear trimer of human C3d, called C3d3 or APT2029
